In patent US20200407704, “FUSION PROTEINS AND METHODS FOR SITE-DIRECTED GENOME EDITING” (The Regents of the University of California, published 2020):

T1: hADAR1d E1008Q (Homo sapiens, UniProt P55265 SEQ:833-1226)
T1 chain: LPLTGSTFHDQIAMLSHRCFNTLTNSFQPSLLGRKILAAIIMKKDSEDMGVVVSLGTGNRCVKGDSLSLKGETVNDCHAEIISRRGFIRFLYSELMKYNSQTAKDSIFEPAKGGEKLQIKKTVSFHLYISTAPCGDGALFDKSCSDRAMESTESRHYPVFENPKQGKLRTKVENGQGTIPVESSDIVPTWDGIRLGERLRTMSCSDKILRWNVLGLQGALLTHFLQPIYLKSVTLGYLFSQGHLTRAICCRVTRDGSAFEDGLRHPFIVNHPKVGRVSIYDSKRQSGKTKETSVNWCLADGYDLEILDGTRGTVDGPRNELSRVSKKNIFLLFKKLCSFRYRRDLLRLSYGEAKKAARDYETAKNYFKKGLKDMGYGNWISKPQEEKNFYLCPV


Tests used:
[1] = tested on: HBD-ADAR2 deaminase fusion (RNase H1 hybrid binding domain) (Homo sapiens); settings: DNA strand of hybrid, 250 nM, 60 min
[2] = tested on: hADAR2d (ADAR2 deaminase domain, hADAR2-D WT) (Homo sapiens); settings: DNA strand of hybrid, 250 nM, 60 min
hADAR1d E1008Q = molecular target: T1, hADAR1d E1008Q; experiment: 500 nM, 2 h; settings: dA-C mismatch
Procedure: M13 genomic ssDNA (New England Biolabs) was hybridized with the corresponding guide RNAs. The guide RNA to genomic DNA molar ratio was 20:1 for each hybridization. Deamination reactions were carried out as previously described (21) with the following modifications. The final reaction volume was 10 μL. hADAR1d E1008Q was used for the reaction and the final enzyme concentration was 500 nM. The final RNA concentration was 2.8 nM. The final reaction solution contained 13 mM Tris-HCl, pH 7.2, 3.6% glycerol, 1.2 mM EDTA, 0.002% NP-40, 40.5 mM potassium glutamate, 12.5 mM KCl, 6 mM NaCl, 0.6 mM DTT, 160 units/mL RNasin, and 1 μg/mL yeast tRNA. Reactions were quenched by adding 190 μL 95° C. nuclease-free water followed by incubation at 95° C. for 5 minutes. The target regions of the reaction products were PCR amplified with primers using GoTaq® DNA Polymerase (Promega). PCR products were purified by agarose gel, extracted using a QIAquick Gel Extraction Kit (Qiagen), and sequenced with the forward PCR primers. The sequencing peak heights were measured with Chromas for calculating the editing level. Each experiment was carried out in triplicate. The editing level for the corresponding zero time point was subtracted from each data point as background subtraction. Statistical significance between groups was determined by t tests using QuickCalcs (GraphPad Software).

Molecule	activity [1] [% edited]	activity [2] [% edited]	activity (hADAR1d E1008Q) [% edited]
DNA/RNA hybrid duplex used with HBD fusion	90	35	
M13 CAC site + guide RNA (DNA:RNA) DNA: CTTTCTATTCTCACTCCGCTGAAA RNA: UUUCAGCGGAGCGAGAAUAGAAAG			53
M13 GAA site + guide RNA (DNA:RNA) DNA: AGGCCAGACGCGAATTATTTTTGA RNA: UCAAAAAUAAUCCGCGUCUGGCCU			27
M13 AAG site + guide RNA (DNA:RNA) DNA: CCAAATGGCTCAAGTCGGTGACGG RNA: CCGUCACCGACCUGAGCCAUUUGG			81
M13 TAG site + guide RNA (DNA:RNA) DNA: CCTCGCGTTCTTAGAATACCGGAT RNA: AUCCGGUAUUCCAAGAACGCGAGG			94
